# Data published in the supplement of paper PMC10724198.
# ± gives the standard deviation of the averaged measurements.
# Test system: Saccharomyces cerevisiae
# Test: protein stability index of tFT-peptide fusion (C-terminal peptide) (PSI (0-1 scale)); higher = more stable (slower turnover)
# Conditions: genetic background: wild type; temperature: 30 C
# 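Note: PSI is a weighted mean of sequencing reads over stability bins, variants kept only with over 10 reads, mCherry proximal and sfGFP distal, peptide attached via GGGS linker.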
row,Sequence,protein stability index
1,LGVVSCAVVGFV,0.625 ± 0.041
2,LGWGGGGPLSGG,0.7197 ± 0.0054
3,LGWWWVWSWGRG,0.668 ± 0.04
4,LHGFYSKKAINR,0.701 ± 0.031
5,LHGLSGRLLFDV,0.574 ± 0.2
6,LHHPPAPPLPPP,0.695 ± 0.018
7,LHLDTMPQEKNN,0.668 ± 0.036
8,LHPAPPAAPTRP,0.711 ± 0.016
9,LHPRPPLFLHPL,0.692 ± 0.015
10,LHRFYVGQLVVN,0.522 ± 0.0092
11,LHSNFGSSVFSL,0.713 ± 0.012
12,LHSPWPFSAPGI,0.855 ± 0.2
13,LIGKNNTSIQLK,0.742 ± 0.16
14,LIIGYFSSRVCL,0.61 ± 0.074
15,LILRPLPPPLPP,0.5623 ± 0.0014
16,LIMLNNIENSSI,0.678 ± 0.01
17,LIQHVTKLTPFF,0.694 ± 0.012
18,LIRFFSSSRPGS,0.671 ± 0.15
19,LIRPSAPSHRSP,0.798 ± 0.025
20,LISFSGFSPFLW,0.7678 ± 0.0027
21,LISISNINEGVI,0.688 ± 0.037
22,LISPPAQLAFVP,0.696 ± 0.016
23,LISRFFPSRSAP,0.854 ± 0.021

row,Sequence,protein stability index
1,LIVSTAGVTQFS,0.66 ± 0.012
2,LIWHTLSTVIPF,0.657 ± 0.029
3,LKNKVDGKVSGK,0.6014 ± 0.0045
4,LKPGYQGQHKED,0.7 ± 0.029
5,LKPKLDFHIWDV,0.67 ± 0.1
6,LKQKMKETGRRR,0.666 ± 0.058
7,LKRSDFSFLEKV,0.701 ± 0.075
8,LKSGAWFFRIGY,0.66 ± 0.018
9,LKYETGTILRMT,0.563 ± 0.013
10,LLAFLPPPPCPP,0.709 ± 0.036
11,LLATCGAIHTFC,0.637 ± 0.01
12,LLCFGGRGPLAD,0.713 ± 0.028
13,LLCTSSGYWAWK,0.699 ± 0.0087
14,LLFFRSPFSLVS,0.6465 ± 0.0059
15,LLFLGSSLRDTF,0.759 ± 0.0098
16,LLGGLHIPHPLR,0.681 ± 0.052
17,LLGSFSLSMSSL,0.717 ± 0.021
18,LLINTARWSEAG,0.662 ± 0.049
19,LLLLDPPLPPPP,0.684 ± 0.015
20,LLLLRSPPPTPP,0.6722 ± 0.0021
21,LLLLSTCSPLLL,0.618 ± 0.021
22,LLLPPRPPPSVP,0.742 ± 0.15
23,LLLQLSPLLTSL,0.646 ± 0.019

row,Sequence,protein stability index
1,LLLSSPPFPALL,0.638 ± 0.0074
2,LLPLPSPLPACP,0.709 ± 0.02
3,LLPLTWTTVQGP,0.694 ± 0.027
4,LLPPPPVPTPDR,0.659 ± 0.12
5,LLPPRPSSSPPS,0.704 ± 0.026
6,LLPSLFLLPPSA,0.743 ± 0.094
7,LLPSPRSSPPPS,0.675 ± 0.091
8,LLQRFTTVPTLL,0.616 ± 0.083
9,LLRLTGRRHVGG,0.748 ± 0.2
10,LLRPLSPIDVLR,0.702 ± 0.069
11,LLRPYYHILVPL,0.695 ± 0.0024
12,LLRRFSLLPPPL,0.667 ± 0.035
13,LLRSCLTLFARR,0.668 ± 0.021
14,LLRVPPGPIFPS,0.661 ± 0.064
15,LLSCLDILFFFI,0.609 ± 0.016
16,LLSGRDAACRGG,0.663 ± 0.027
17,LLSLLQLPASAS,0.605 ± 0.03
18,LLSLSCLPLHFR,0.574 ± 0.088
19,LLSPAPPLPPAP,0.666 ± 0.057
20,LLVVSIGSCFFG,0.572 ± 0.065
21,LMGGMIRDMVWG,0.643 ± 0.13
22,LMRGLYAIPGKF,0.776 ± 0.019
23,LMVGFRSFNVKC,0.618 ± 0.051

row,Sequence,protein stability index
1,LNLRTFATFFRY,0.635 ± 0.077
2,LNLTAPPPPHLV,0.6721 ± 0.0066
3,LNLWVVYRLLGV,0.599 ± 0.038
4,LNPPFICFAWLY,0.598 ± 0.076
5,LPAAPPPPPLPP,0.742 ± 0.042
6,LPASPSIAPPPT,0.636 ± 0.06
7,LPATLPPPPAPP,0.705 ± 0.036
8,LPAWSYPSGWLL,0.718 ± 0.044
9,LPCCYVWFFLSL,0.499 ± 0.023
10,LPCRRPTPPFPQ,0.752 ± 0.024
11,LPCSTLPWAPLT,0.565 ± 0.023
12,LPFLVSPPLFRT,0.664 ± 0.063
13,LPFPLGDSRGSC,0.697 ± 0.011
14,LPFPPPIIATPP,0.665 ± 0.13
15,LPFPSPSPPFPF,0.63 ± 0.094
16,LPGAEASRCTST,0.657 ± 0.041
17,LPGKVGNAPFDQ,0.6913 ± 0.0062
18,LPHPPPLPTPPP,0.739 ± 0.13
19,LPHVALFLLPAL,0.638 ± 0.0064
20,LPLLALLDVPLP,0.683 ± 0.018
21,LPLPHPRLPPRP,0.684 ± 0.049
22,LPLPTSPHPRPA,0.61 ± 0.046
23,LPLRAHPTISFP,0.751 ± 0.05

row,Sequence,protein stability index
1,LPNTWLTSLIHQ,0.701 ± 0.33
2,LPPAPPLPPPPT,0.683 ± 0.044
3,LPPARRHPSVYR,0.669 ± 0.064
4,LPPHPPPCPPLL,0.733 ± 0.088
5,LPPLAPASHHLC,0.493 ± 0.016
6,LPPLAYALLPPL,0.571 ± 0.028
7,LPPLPLPPAPSA,0.621 ± 0.042
8,LPPLPPLPPPPH,0.686 ± 0.076
9,LPPLPPPPLLFP,0.674 ± 0.002
10,LPPPAPSPAPPH,0.593 ± 0.12
11,LPPPGSSPRATS,0.718 ± 0.06
12,LPPPLPPLLPLP,0.675 ± 0.014
13,LPPPLPVRSPLF,0.68 ± 0.012
14,LPPPPIAPPLTP,0.689 ± 0.063
15,LPPPPRPPLPSP,0.737 ± 0.068
16,LPPPSPSPLFPP,0.669 ± 0.052
17,LPPPYSHTPPPR,0.581 ± 0.031
18,LPPQRPSQYLLH,0.786 ± 0.11
19,LPPRPRPLPPSP,0.589 ± 0.0077
20,LPPRSRHPSPYA,0.654 ± 0.016
21,LPPSPHPPLPHL,0.886 ± 0.011
22,LPPSPLALVSSS,0.637 ± 0.021
23,LPPTPPLPRSLP,0.716 ± 0.066

row,Sequence,protein stability index
1,LPPTSPPPSSPP,0.7007 ± 0.0041
2,LPRAAISRKFAT,0.63 ± 0.037
3,LPRLPVSPLPLP,0.681 ± 0.057
4,LPRPLTIKQVAG,0.56 ± 0.021
5,LPRPPPTSSTPL,0.784 ± 0.16
6,LPRRDPGPSKEP,0.66644 ± 0.00038
7,LPSGVPPPPPLP,0.695 ± 0.063
8,LPSLPPRTSPPS,0.761 ± 0.027
9,LPSLRFLFPLVP,0.671 ± 0.036
10,LPSLSPPPSLPL,0.763 ± 0.042
11,LPSPLPPPAWTP,0.735 ± 0.029
12,LPSPLPPPPPAH,0.707 ± 0.0082
13,LPSPPPPRSLLP,0.6657 ± 0.0016
14,LPSPPPRPPHHR,0.672 ± 0.025
15,LPSPTTPRSPPP,0.729 ± 0.1
16,LPSPYPMPPPLP,0.736 ± 0.018
17,LPSSLFLCSLFC,0.655 ± 0.026
18,LPVLPPLSPSPF,0.665 ± 0.011
19,LPVPLAAFTTLH,0.711 ± 0.084
20,LPVRLPVSGSSS,0.8296 ± 0.0057
21,LQAALVFPRSSL,0.7225 ± 0.00052
22,LQPLPPYHSIQL,0.703 ± 0.012
23,LQRPDHPTPTPP,0.712 ± 0.017

row,Sequence,protein stability index
1,LQSLRSEVIHSL,0.651 ± 0.095
2,LQTLDVFTTMKL,0.58 ± 0.045
3,LRAWWTPRRGRW,0.769 ± 0.052
4,LRCLFAWVCECG,0.635 ± 0.083
5,LRCLLAHIAGRG,0.67065 ± 0.00044
6,LRCSKRNKSMGQ,0.648 ± 0.048
7,LRECRSWGGAAG,0.653 ± 0.029
8,LRFRTNYFFSRV,0.665 ± 0.063
9,LRGFGLGLRFFF,0.65 ± 0.013
10,LRGGGKRREVMG,0.702 ± 0.099
11,LRGSCFSLWLVF,0.526 ± 0.031
12,LRGVGAGPEDVG,0.694 ± 0.017
13,LRHVARCARGGA,0.647 ± 0.095
14,LRKCVKAECKSQ,0.684 ± 0.037
15,LRLCSLSLPSLP,0.704 ± 0.026
16,LRLGRDLMGEGV,0.661 ± 0.072
17,LRLLLLVLPTCF,0.527 ± 0.02
18,LRPILLSWFRKS,0.61 ± 0.039
19,LRPLPPPAPCKF,0.774 ± 0.04
20,LRPLPSPPPSLH,0.603 ± 0.0066
21,LRPRRCWNQWDM,0.675 ± 0.048
22,LRQALGRSEEPQ,0.6728 ± 0.0065
